How the values were obtained:
[1] = molecular target: T1, extracellular domain (ECD) of human CD47 (19aa-139aa) with C-terminal 6xHis tag (human, UniProt Q08722 19-139); assay: ELISA, coated recombinant CD47; EC50 as grade, legend the 6th table, row 26
T1 construct: also called recombinant CD47; recombinant human CD47
Experimental: A 96-well plate was coated overnight at 4° C. with 1 μg/ml recombinant CD47. After washing 3 times, the plate was blocked with 300 μL 1% BSA in PBST at 37° C. for 1 hour. Serially diluted antibodies were added and incubated at 37° C. for 1 hour. The plate was then washed 4 times with PBST and incubated with 1:5000 diluted 2nd antibody (Sigma, Cat #A0293) at 37° C. for 1 hour.

[2] = molecular target: T2, CD47 on the surface of CD47+ cells (human, UniProt Q08722 19-323); assay: flow cytometry on CD47+ cell lines; EC50 as grade, legend the 7th table, row 26
T2 construct: whole, on cells; also called CD47+ cell lines; CD47 on Raji cells, HCT-15 cells, human red blood cells (RBCs), human platelets
Experimental: Antibody binding to CD47+ cell lines was quantified by flow cytometry. Harvested cells were centrifuged at 2000 rpm for 5 min, resuspended in 10-15 mL ice-cold culture medium, and then counted. Cells were resuspended in blocking buffer (PBS plus 2% FBS) at a concentration of 3×10⁶ cells/mL. 100 μL of the cell suspension was dispensed into each well of a 96-well plate. Purified antibodies were diluted to the desired concentrations with blocking buffer and 100 μL of diluted antibodies were added to the well and incubated for 1 hour at 4° C. The cells were then washed 3 times with PBS plus 2% FBS. […] The cells were then washed 3 times with 200 μL PBS by centrifuging at 2000 rpm for 5 min. After the last wash, the cells were resuspended in 300 μL cold PBS and analyzed on a FACSVerse™ (BD Biosciences) flow cytometer.

[3] = molecular target: T1, extracellular domain (ECD) of human …; assay: SPR, Biacore 8K, antibody captured by anti-human Fc, monomeric CD47 ECD injected, 25 C, 1:1 Langmuir
Experimental: Furthermore, binding kinetics measurements of the anti-CD47 antibodies were not affected by antibody valency in the SPR assays because antibodies were immobilized and challenged with monomeric antigens. SPR was performed on a Biacore 8K instrument (GE Healthcare). Antibodies were captured on Biacore Series S CM5 sensor chips coated with a monoclonal mouse anti-human IgG (Fc) antibody (GE Healthcare human antibody capture kit). Serial 3-fold dilutions of CD47 ECD antigen were injected at a flow rate of 30 μL/min. Each sample was analyzed with 1 min association and 10 min dissociation at room temperature (25° C.). After each injection, the chip was regenerated using 3M MgCl₂. A 1:1 Langmuir model of simultaneous fitting of kon and koff was used for kinetics analysis.

[4] = molecular target: T2, CD47 on the surface of CD47+ cells; assay: flow cytometry, competition with SIRPA-mIgG2a on CD47+ tumor cells; IC50 as grade, legend the 8th table, row 26
Experimental: Tumor cells were harvested, centrifuged, and then resuspended in FACS buffer (PBS plus 2% FBS) at a concentration of 2×10⁶ cells/mL. 100 μL of the cell suspension was dispensed into each well of a 96-well plate. The plate was centrifuged for 5 min and 300×g, and the supernatants were discarded. […] After washing twice with FACS buffer, the plates were resuspended with 300 μL FACS buffer and analyzed by flow cytometry.

B1: R.18B9 (antibody, human IgG1, kappa, V domains shown)
VH: QSLEESGGDLVKPGASLTLTCKASGFSFNSGYMCWVRQAPGKGLEWIACIYAGSSGKTYYASWATGRFTISKTSSTTVTLQMTSLTVADTATYFCARDDGGTYYTDYLYLWGPGTLVTVSS
VL: DVVMTQTPASVEAAVGGTVTIKCQASEGISSYLSWYQQKPGQPPKLLIYKASTLTSGVPSRFKGSGSGTDFTLTISDLESADAATYYCQCTYGSSGSSGYGAAFGGGTEVVVKR
notes: Chimeric: rabbit variable domains, human IgG1 and human kappa constant regions; also called Chimeric antibody 18B9
Work on B1 yielded an EC50 [1] of 0.01 to 0.1 nM, an EC50 [2] of 0.5 to 5 nM and a Kd [3] of 10 to 100 nM. The IC50 [4] was 0.1 to 1 nM.

B2: M.1D15E11 (antibody, human IgG1, kappa, V domains shown)
VH: EVQLQQSGPELVKPGAPVKMSCKASGYTFTSYVMHWVKQKPGQGLEWIGYIDPYNDGTKYNEKFKGKATLTSDKSSSTAYMELSSLTSEDSAVYYCSRGGMARRSFDYWGQGTTLTVSS
VL: DIQMTQSPASQSASLGESVTITCLASQTIGTWLTWYQQKPGKSPQLLIYAATTLADGVPSRFSGSGSGTKFSFKISSLQAEDFVSYYCQQLYSTPWTFGGGTKLEIKR
notes: Chimeric: mouse variable domains, human IgG1 and human kappa constant regions; also called Chimeric antibody 1D15E11
B2 was tested, and the EC50 [1] was 0.01 to 0.1 nM, the EC50 [2] was 0.1 to 0.5 nM and the Kd [3] was 1 to 10 nM. For the same binder, the IC50 [4] was 0.1 to 1 nM.

Reference: patent US20240174750A1 (VIRTUOSO BINCO, published 2024)
